What was measured:
[1] = system: COc1ccc2c(CC(=O)N[C@H](CCCNC(=N)N)C(=O)N3CCC[C@H]3C(=O)N[C@@H](CC(C)C)C(=O)NCC(=O)N[C@@H](CCCCOc3ccccc3)C(=O)N[C@@H](CNc3ccc([N+](=O)[O-])cc3[N+](=O)[O-])C(=O)N[C@@H](C)C(=O)N[C@H](CCCNC(=N)N)C(=O)N[C@H](CCC(=O)O)C(=O)N[C@H](CCCNC(=N)N)C(N)=O)cc(=O)oc2c1; assay: Km and kcat/Km of substrates with MMP-8; type: biochemical; conditions: other: substrate cleavage by MMP-8
[2] = system: COc1ccc2c(CC(=O)N[C@H](CCCNC(=N)N)C(=O)N3CCC[C@H]3C(=O)N[C@@H](CC(C)C)C(=O)NCC(=O)N[C@@H](CCCCOCc3ccccc3)C(=O)N[C@@H](CNc3ccc([N+](=O)[O-])cc3[N+](=O)[O-])C(=O)N[C@@H](C)C(=O)N[C@H](CCCNC(=N)N)C(=O)N[C@H](CCC(=O)O)C(=O)N[C@H](CCCNC(=N)N)C(N)=O)cc(=O)oc2c1; assay: Km and kcat/Km of substrates with MMP-8; type: biochemical; conditions: other: substrate cleavage by MMP-8
[3] = system: COc1ccc2c(CC(=O)N[C@@H](CCCNC(=N)N)C(=O)N3CCC[C@@H]3C(=O)N[C@@H](CC(C)C)C(=O)NCC(=O)N[C@@H](CC(C)C)C(=O)N[C@H](CNc3ccc([N+](=O)[O-])cc3[N+](=O)[O-])C(=O)N[C@@H](C)C(=O)N[C@H](CCCNC(=N)N)C(=O)N[C@@H](CCC(=O)O)C(=O)N[C@H](CCCNC(=N)N)C(N)=O)cc(=O)oc2c1; assay: Km and kcat/Km of substrates with MMP-8; type: biochemical; conditions: other: substrate cleavage by MMP-8
[4] = system: COc1ccc2c(CC(=O)N[C@@H](CCCNC(=N)N)C(=O)N3CCC[C@H]3C(=O)N[C@@H](CC(C)C)C(=O)NCC(=O)N[C@@H](CCCCOCc3ccccc3)C(=O)N[C@@H](CNc3ccc([N+](=O)[O-])cc3[N+](=O)[O-])C(=O)N[C@@H](C)C(=O)N[C@@H](CCCNC(=N)N)C(=O)N[C@@H](CCC(=O)O)C(=O)N[C@@H](CCCNC(=N)N)C(N)=O)cc(=O)oc2c1; assay: Km and kcat/Km of substrates with MMP-8; type: biochemical; conditions: other: substrate cleavage by MMP-8
[5] = system: COc1ccc2c(CC(=O)N[C@H](CCCNC(=N)N)C(=O)N3CCC[C@H]3C(=O)N[C@@H](CC(C)C)C(=O)NCC(=O)N[C@@H](CCCCOc3ccccc3)C(=O)N[C@@H](CNc3ccc([N+](=O)[O-])cc3[N+](=O)[O-])C(=O)N[C@@H](C)C(=O)N[C@H](CCCNC(=N)N)C(=O)N[C@H](CCC(=O)O)C(=O)N[C@H](CCCNC(=N)N)C(N)=O)cc(=O)oc2c1; assay: Km and kcat/Km of substrates with MMP-13; type: biochemical; conditions: other: substrate cleavage by MMP-13
[6] = system: COc1ccc2c(CC(=O)N[C@H](CCCNC(=N)N)C(=O)N3CCC[C@H]3C(=O)N[C@@H](CC(C)C)C(=O)NCC(=O)N[C@@H](CCCCOCc3ccccc3)C(=O)N[C@@H](CNc3ccc([N+](=O)[O-])cc3[N+](=O)[O-])C(=O)N[C@@H](C)C(=O)N[C@H](CCCNC(=N)N)C(=O)N[C@H](CCC(=O)O)C(=O)N[C@H](CCCNC(=N)N)C(N)=O)cc(=O)oc2c1; assay: Km and kcat/Km of substrates with MMP-13; type: biochemical; conditions: other: substrate cleavage by MMP-13
[7] = system: COc1ccc2c(CC(=O)N[C@@H](CCCNC(=N)N)C(=O)N3CCC[C@@H]3C(=O)N[C@@H](CC(C)C)C(=O)NCC(=O)N[C@@H](CC(C)C)C(=O)N[C@H](CNc3ccc([N+](=O)[O-])cc3[N+](=O)[O-])C(=O)N[C@@H](C)C(=O)N[C@H](CCCNC(=N)N)C(=O)N[C@@H](CCC(=O)O)C(=O)N[C@H](CCCNC(=N)N)C(N)=O)cc(=O)oc2c1; assay: Km and kcat/Km of substrates with MMP-13; type: biochemical; conditions: other: substrate cleavage by MMP-13
[8] = system: COc1ccc2c(CC(=O)N[C@@H](CCCNC(=N)N)C(=O)N3CCC[C@H]3C(=O)N[C@@H](CC(C)C)C(=O)NCC(=O)N[C@@H](CCCCOCc3ccccc3)C(=O)N[C@@H](CNc3ccc([N+](=O)[O-])cc3[N+](=O)[O-])C(=O)N[C@@H](C)C(=O)N[C@@H](CCCNC(=N)N)C(=O)N[C@@H](CCC(=O)O)C(=O)N[C@@H](CCCNC(=N)N)C(N)=O)cc(=O)oc2c1; assay: Km and kcat/Km of substrates with MMP-13; type: biochemical; conditions: other: substrate cleavage by MMP-13
[9] = system: COc1ccc2c(CC(=O)N[C@H](CCCNC(=N)N)C(=O)N3CCC[C@H]3C(=O)N[C@@H](CC(C)C)C(=O)NCC(=O)N[C@@H](CCCCOCc3ccccc3)C(=O)N[C@@H](CNc3ccc([N+](=O)[O-])cc3[N+](=O)[O-])C(=O)N[C@@H](C)C(=O)N[C@H](CCCNC(=N)N)C(=O)N[C@H](CCC(=O)O)C(=O)N[C@H](CCCNC(=N)N)C(N)=O)cc(=O)oc2c1; assay: Km and kcat/Km of substrates with MMP-3; type: biochemical; conditions: other: substrate cleavage by MMP-3
[10] = system: COc1ccc2c(CC(=O)N[C@@H](CCCNC(=N)N)C(=O)N3CCC[C@@H]3C(=O)N[C@@H](CC(C)C)C(=O)NCC(=O)N[C@@H](CC(C)C)C(=O)N[C@H](CNc3ccc([N+](=O)[O-])cc3[N+](=O)[O-])C(=O)N[C@@H](C)C(=O)N[C@H](CCCNC(=N)N)C(=O)N[C@@H](CCC(=O)O)C(=O)N[C@H](CCCNC(=N)N)C(N)=O)cc(=O)oc2c1; assay: Km and kcat/Km of substrates with MMP-3; type: biochemical; conditions: other: substrate cleavage by MMP-3
[11] = system: COc1ccc2c(CC(=O)N[C@@H](CCCNC(=N)N)C(=O)N3CCC[C@H]3C(=O)N[C@@H](CC(C)C)C(=O)NCC(=O)N[C@@H](CCCCOCc3ccccc3)C(=O)N[C@@H](CNc3ccc([N+](=O)[O-])cc3[N+](=O)[O-])C(=O)N[C@@H](C)C(=O)N[C@@H](CCCNC(=N)N)C(=O)N[C@@H](CCC(=O)O)C(=O)N[C@@H](CCCNC(=N)N)C(N)=O)cc(=O)oc2c1; assay: Km and kcat/Km of substrates with MMP-3; type: biochemical; conditions: other: substrate cleavage by MMP-3
[12] = system: COc1ccc2c(CC(=O)N[C@H](CCCNC(=N)N)C(=O)N3CCC[C@H]3C(=O)N[C@@H](CC(C)C)C(=O)NCC(=O)N[C@@H](CCCCOc3ccccc3)C(=O)N[C@@H](CNc3ccc([N+](=O)[O-])cc3[N+](=O)[O-])C(=O)N[C@@H](C)C(=O)N[C@H](CCCNC(=N)N)C(=O)N[C@H](CCC(=O)O)C(=O)N[C@H](CCCNC(=N)N)C(N)=O)cc(=O)oc2c1; assay: purified protein, by the assay type; conditions: other: substrate cleavage by MMP-14
[13] = system: COc1ccc2c(CC(=O)N[C@H](CCCNC(=N)N)C(=O)N3CCC[C@H]3C(=O)N[C@@H](CC(C)C)C(=O)NCC(=O)N[C@@H](CCCCOCc3ccccc3)C(=O)N[C@@H](CNc3ccc([N+](=O)[O-])cc3[N+](=O)[O-])C(=O)N[C@@H](C)C(=O)N[C@H](CCCNC(=N)N)C(=O)N[C@H](CCC(=O)O)C(=O)N[C@H](CCCNC(=N)N)C(N)=O)cc(=O)oc2c1; assay: purified protein, by the assay type; conditions: other: substrate cleavage by MMP-14
[14] = system: COc1ccc2c(CC(=O)N[C@@H](CCCNC(=N)N)C(=O)N3CCC[C@@H]3C(=O)N[C@@H](CC(C)C)C(=O)NCC(=O)N[C@@H](CC(C)C)C(=O)N[C@H](CNc3ccc([N+](=O)[O-])cc3[N+](=O)[O-])C(=O)N[C@@H](C)C(=O)N[C@H](CCCNC(=N)N)C(=O)N[C@@H](CCC(=O)O)C(=O)N[C@H](CCCNC(=N)N)C(N)=O)cc(=O)oc2c1; assay: purified protein, by the assay type; conditions: other: substrate cleavage by MMP-14
[15] = system: COc1ccc2c(CC(=O)N[C@@H](CCCNC(=N)N)C(=O)N3CCC[C@H]3C(=O)N[C@@H](CC(C)C)C(=O)NCC(=O)N[C@@H](CCCCOCc3ccccc3)C(=O)N[C@@H](CNc3ccc([N+](=O)[O-])cc3[N+](=O)[O-])C(=O)N[C@@H](C)C(=O)N[C@@H](CCCNC(=N)N)C(=O)N[C@@H](CCC(=O)O)C(=O)N[C@@H](CCCNC(=N)N)C(N)=O)cc(=O)oc2c1; assay: purified protein, by the assay type; conditions: other: substrate cleavage by MMP-14

Sequence of MMP-3 (Homo sapiens) (chain, as listed by the source): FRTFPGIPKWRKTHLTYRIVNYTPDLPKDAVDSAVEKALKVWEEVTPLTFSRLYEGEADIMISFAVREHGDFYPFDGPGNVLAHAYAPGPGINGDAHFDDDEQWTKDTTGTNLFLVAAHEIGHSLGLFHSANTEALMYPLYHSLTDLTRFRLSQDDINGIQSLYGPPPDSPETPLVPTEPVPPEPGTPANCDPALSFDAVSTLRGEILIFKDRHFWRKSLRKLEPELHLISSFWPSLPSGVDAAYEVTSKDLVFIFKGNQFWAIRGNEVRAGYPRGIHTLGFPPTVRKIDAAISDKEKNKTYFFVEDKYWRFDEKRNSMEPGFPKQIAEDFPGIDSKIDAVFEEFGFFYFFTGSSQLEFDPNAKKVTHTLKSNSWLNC
Sequence of MMP-8 (Homo sapiens) (chain, as listed by the source): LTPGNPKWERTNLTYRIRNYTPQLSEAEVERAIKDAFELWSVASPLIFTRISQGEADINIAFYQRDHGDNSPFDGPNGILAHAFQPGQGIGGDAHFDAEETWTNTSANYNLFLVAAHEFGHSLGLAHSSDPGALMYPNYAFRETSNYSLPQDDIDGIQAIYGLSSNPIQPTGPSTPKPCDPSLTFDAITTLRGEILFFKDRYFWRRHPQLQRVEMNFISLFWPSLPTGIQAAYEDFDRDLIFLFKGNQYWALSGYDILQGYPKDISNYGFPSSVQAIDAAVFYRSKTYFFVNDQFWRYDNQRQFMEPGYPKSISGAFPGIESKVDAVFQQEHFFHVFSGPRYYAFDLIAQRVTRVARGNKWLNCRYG

MMP-8 (Homo sapiens)
Km [1]: 4.4 µM
kcat/Km [1]: 52.2 M^−1s^−1×10^4
Km [2]: 3.3 µM
kcat/Km [2]: 14.6 M^−1s^−1×10^4
Km [3]: 16.7 µM
kcat/Km [3]: 13.9 M^−1s^−1×10^4
Km [4]: 9.1 µM
kcat/Km [4]: 17.9 M^−1s^−1×10^4

MMP-13 (Homo sapiens)
Km [5]: 1.2 µM
kcat/Km [5]: 293 M^−1s^−1×10^4
Km [6]: 1.5 µM
kcat/Km [6]: 158 M^−1s^−1×10^4
Km [7]: 9 µM
kcat/Km [7]: 29.6 M^−1s^−1×10^4
Km [8]: 0.9 µM
kcat/Km [8]: 424 M^−1s^−1×10^4

MMP-3 (Homo sapiens)
Km [9]: 28.9 µM
kcat/Km [9]: 0.16 M^−1s^−1×10^4
Km [10]: 14 µM
kcat/Km [10]: 0.63 M^−1s^−1×10^4
Km [11]: 85.9 µM
kcat/Km [11]: 0.48 M^−1s^−1×10^4

MMP-14 (Homo sapiens)
Km [12]: 7.4 µM
kcat/Km [12]: 15.5 M^−1s^−1×10^4
Km [13]: 23.7 µM
kcat/Km [13]: 5.09 M^−1s^−1×10^4
Km [14]: 27.2 µM
kcat/Km [14]: 4.1 M^−1s^−1×10^4
Km [15]: 12 µM
kcat/Km [15]: 8.3 M^−1s^−1×10^4

— patent publication US20040018561A1, “Peptide compounds and their use as protease substrates” (priority 2002, published 2004)
